Target: T1, MBP-AIM2 HIN domain (human, UniProt O14862 144-343)
T1 sequence (looked up): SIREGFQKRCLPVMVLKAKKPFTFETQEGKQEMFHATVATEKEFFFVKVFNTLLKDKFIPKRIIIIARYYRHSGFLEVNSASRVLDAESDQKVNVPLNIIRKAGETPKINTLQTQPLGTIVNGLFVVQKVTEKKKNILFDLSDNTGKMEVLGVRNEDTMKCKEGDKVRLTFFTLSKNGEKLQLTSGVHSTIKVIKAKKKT
Assay: fluorescence polarisation

B1: AIM2 PYD domain, wild type (residues 1–107), as used in the FP inhibition assay (domain or fragment, human, UniProt O14862 1-107, looked up)
chain: MESKYKEILLLTGLDNITDEELDRFKFFLSDEFNIATGKLHTANRIQVATLMIQNAGAVSAVMKTIRIFQKLNYMLLAKRLQEEKEKVDKQYKSVTKPKPLSQAEMS
B1 showed an IC50 of 11 µM.
